Key:
Conditions in all cases: 100 mM Na+, pH 7.5, 21 C; slow pulling (100 nm/s) for equilibrium measurements
[1] = system: Nhp6Ap (Saccharomyces cerevisiae); test: optical tweezers, overstretching force, Hill fit
[2] = system: HMGB2 (box A), +/- His tag average (human); test: optical tweezers, overstretching force, Hill fit
[3] = system: Nhp6Ap (Saccharomyces cerevisiae); test: optical tweezers, WLC/FJC linear combination fit
[4] = system: HMGB2 (box A), +/- His tag average (human); test: optical tweezers, WLC/FJC linear combination fit
[5] = system: Nhp6Ap (Saccharomyces cerevisiae); test: optical tweezers, persistence/contour length, Hill fit
[6] = system: HMGB2 (box A), +/- His tag average (human); test: as above
[7] = system: Nhp6Ap (Saccharomyces cerevisiae); test: optical tweezers, persistence/contour length vs concentration
[8] = system: HMGB2 (box A) +his (human); test: as above
[9] = system: HMGB2 (box A), +/- His tag average (human); test: as above
[10] = system: HMGB2 (box A) -his (human); test: as above
[11] = system: Nhp6Ap (Saccharomyces cerevisiae); test: optical tweezers, overstretching force vs concentration
[12] = system: HMGB2 (box A) +his (human); test: as above
[13] = system: HMGB2 (box A), +/- His tag average (human); test: as above
[14] = system: HMGB2 (box A) -his (human); test: as above

**Q.** For phage lambda DNA, which Kd [1] is on record?
**A.** 150 nM

**Q.** What about the Kd [2] of the same substance?
**A.** 850 nM

**Q.** What about the Kd [3] of the same substance?
**A.** 63 nM

**Q.** What about the Kd [4] of the same substance?
**A.** 460 nM

**Q.** What about the Kd [5] of the same substance?
**A.** 66 nM

**Q.** And the Kd [6]?
**A.** 170 nM

**Q.** And the Kd [7]?
**A.** 71 nM

**Q.** And the Kd [8]?
**A.** 230 nM

**Q.** What about the Kd [9] of the same substance?
**A.** 180 nM

**Q.** And the Kd [10]?
**A.** 130 nM

**Q.** And the Kd [11]?
**A.** 160 nM

**Q.** And the Kd [12]?
**A.** 930 nM

**Q.** And the Kd [13]?
**A.** 880 nM

**Q.** And the Kd [14]?
**A.** 830 nM

From paper PMC3592474
